Assay results taken from patent publication US20100129344.

How the values were obtained:
[1] = target: T1, IGFBP-2 (human, GroPep), P18065
T1 chain: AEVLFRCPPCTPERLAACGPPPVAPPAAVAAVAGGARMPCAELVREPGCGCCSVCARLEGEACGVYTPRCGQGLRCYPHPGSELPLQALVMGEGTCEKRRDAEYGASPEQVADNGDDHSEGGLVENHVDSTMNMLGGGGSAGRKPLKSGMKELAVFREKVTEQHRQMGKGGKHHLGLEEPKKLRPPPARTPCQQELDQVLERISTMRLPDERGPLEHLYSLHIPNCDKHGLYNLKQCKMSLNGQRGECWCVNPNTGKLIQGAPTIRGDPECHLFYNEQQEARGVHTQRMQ

[2] = target: T2, IGFBP-6 (human, GroPep), P24592
T2 chain: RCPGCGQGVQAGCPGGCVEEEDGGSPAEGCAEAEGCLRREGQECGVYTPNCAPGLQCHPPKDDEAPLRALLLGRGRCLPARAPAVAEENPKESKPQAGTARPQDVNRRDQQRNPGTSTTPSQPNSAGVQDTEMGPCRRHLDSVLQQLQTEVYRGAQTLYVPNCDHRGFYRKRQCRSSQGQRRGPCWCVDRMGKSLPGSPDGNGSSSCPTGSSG

[3] = target: T3, IGFBP-4 (human, GroPep), P22692
T3 chain: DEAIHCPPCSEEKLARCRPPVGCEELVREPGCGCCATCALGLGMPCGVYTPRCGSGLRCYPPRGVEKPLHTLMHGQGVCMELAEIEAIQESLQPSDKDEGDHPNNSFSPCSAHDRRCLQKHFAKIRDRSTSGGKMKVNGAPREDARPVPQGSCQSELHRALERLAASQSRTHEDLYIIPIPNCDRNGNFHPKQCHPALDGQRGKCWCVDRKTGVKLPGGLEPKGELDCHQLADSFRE

[4] = target: T4, Recombinant phosphorylated IGFBP-1 (human), intact, P08833
T4 chain: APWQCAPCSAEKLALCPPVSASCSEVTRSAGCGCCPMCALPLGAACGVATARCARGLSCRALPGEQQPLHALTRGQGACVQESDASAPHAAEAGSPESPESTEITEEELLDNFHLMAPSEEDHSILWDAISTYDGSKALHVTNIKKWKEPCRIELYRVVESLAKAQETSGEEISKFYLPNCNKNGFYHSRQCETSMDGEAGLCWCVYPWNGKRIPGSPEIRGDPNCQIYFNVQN

[5] = target: Glycosylated IGFBP-3 (human, GroPep), P17936
Glycosylated IGFBP-3 (human, GroPep), P17936, sequence (P17936 28-291): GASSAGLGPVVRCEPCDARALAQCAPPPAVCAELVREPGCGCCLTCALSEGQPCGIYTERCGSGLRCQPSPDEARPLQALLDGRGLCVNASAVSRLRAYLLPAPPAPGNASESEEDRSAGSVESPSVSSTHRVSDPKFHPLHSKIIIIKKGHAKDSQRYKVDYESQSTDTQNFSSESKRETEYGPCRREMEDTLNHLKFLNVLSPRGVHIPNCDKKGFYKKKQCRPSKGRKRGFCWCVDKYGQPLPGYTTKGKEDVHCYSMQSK

[6] = target: T5, Recombinant non-phosphorylated IGFBP-1 (human), P08833
T5 chain: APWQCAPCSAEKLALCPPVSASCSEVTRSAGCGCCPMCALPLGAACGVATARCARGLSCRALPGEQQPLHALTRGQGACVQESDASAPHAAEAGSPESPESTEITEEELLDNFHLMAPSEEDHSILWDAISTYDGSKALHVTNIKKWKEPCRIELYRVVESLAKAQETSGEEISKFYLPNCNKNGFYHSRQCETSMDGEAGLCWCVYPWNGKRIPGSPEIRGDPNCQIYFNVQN

[7] = target: T6, Dephosphorylated preparation of HepG2-purified IGFBP-1, P08833
T6 chain: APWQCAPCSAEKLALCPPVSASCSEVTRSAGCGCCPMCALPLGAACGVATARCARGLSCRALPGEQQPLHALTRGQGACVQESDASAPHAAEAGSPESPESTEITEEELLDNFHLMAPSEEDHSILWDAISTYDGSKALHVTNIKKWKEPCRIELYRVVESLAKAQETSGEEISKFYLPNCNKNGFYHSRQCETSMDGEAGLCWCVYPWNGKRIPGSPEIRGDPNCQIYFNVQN

[8] = target: T7, Highly phosphorylated HepG2-purified IGFBP-1, P08833
T7 chain: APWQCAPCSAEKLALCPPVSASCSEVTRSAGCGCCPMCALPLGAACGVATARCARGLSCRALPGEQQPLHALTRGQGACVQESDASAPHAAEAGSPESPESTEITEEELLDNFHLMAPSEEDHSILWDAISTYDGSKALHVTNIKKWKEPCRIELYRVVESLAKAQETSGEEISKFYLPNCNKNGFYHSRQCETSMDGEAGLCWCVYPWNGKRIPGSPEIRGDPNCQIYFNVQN

[9] = target: IGFBP-5 (human, Upstate), P24593
IGFBP-5 (human, Upstate), P24593, sequence (P24593 21-272): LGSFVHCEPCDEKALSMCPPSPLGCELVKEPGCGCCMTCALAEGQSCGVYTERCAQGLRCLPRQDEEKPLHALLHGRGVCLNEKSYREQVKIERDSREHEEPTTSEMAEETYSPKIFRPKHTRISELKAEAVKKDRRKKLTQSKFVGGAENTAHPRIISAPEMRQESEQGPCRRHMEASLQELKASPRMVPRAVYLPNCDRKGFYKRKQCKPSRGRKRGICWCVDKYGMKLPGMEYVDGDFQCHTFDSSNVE

| Protein | cleavage of IGFBP by urine, 2 h at 37 C, neutral conditions [1] | cleavage of IGFBP by urine, 2 h at 37 C, neutral conditions [2] | cleavage of IGFBP by urine, 2 h at 37 C, neutral conditions [3] | proteolysis of IGFBP-1 (SDS-PAGE, silver staining) [4] | time course of degradation by 0.5 µl urine at 37 C (radioiodinated substrate, SDS-PAGE, autoradiography) [4] | cleavage of IGFBP by urine, 2 h at 37 C, neutral conditions [5] | cleavage of radioiodinated recombinant npIGFBP-1 by 0.25 µl heparin eluate at pH 2 and 7 (2 h, 37 C; SDS-PAGE, autoradiography) [6] | cleavage of radioiodinated recombinant npIGFBP-1 by 0.25 µl heparin eluate at pH 2 to 8 (2 h, 37 C; SDS-PAGE, autoradiography) [6] | cleavage of radioiodinated recombinant npIGFBP-1 by 0.5 µl urine after preincubation with 2, 5 or 10 ng IGF-I [6] | cleavage of radioiodinated recombinant npIGFBP-1 by 0.5 µl urine after preincubation with 2, 5 or 10 ng IGF-II [6] | cleavage of radioiodinated recombinant npIGFBP-1 by 0.5 µl urine after preincubation with 2, 5 or 10 ng insulin [6] | cleavage of radioiodinated recombinant npIGFBP-1 by 0.5 µl urine alone at pH 7 (2 h, 37 C; SDS-PAGE, autoradiography) [6] | cleavage of radioiodinated recombinant npIGFBP-1 by 0.5 µl urine at pH 2 to 8 (2 h, 37 C; SDS-PAGE, autoradiography); the neutral range is meant [6] | time course of degradation by 0.5 µl urine at 37 C (radioiodinated substrate, SDS-PAGE, autoradiography) [6] | cleavage of IGFBP-1 by urine, 2 h at 37 C, neutral conditions (affinity labelling with radioiodinated IGF-I, SDS-PAGE, autoradiography) [7] | cleavage of IGFBP-1 by urine, 2 h at 37 C, neutral conditions (affinity labelling with radioiodinated IGF-I, SDS-PAGE, autoradiography) [8] | cleavage of IGFBP by urine, 2 h at 37 C, neutral conditions [9] | proteolysis of IGFBP-1 [4] |
| --- | --- | --- | --- | --- | --- | --- | --- | --- | --- | --- | --- | --- | --- | --- | --- | --- | --- | --- |
| Azurocidin, native, partially purified from human urine by heparin affinity chromatography (protein) IVGGRKARPRQFPFLASIQNQGRHFCGGALIHARFVMTAASCFQSQNPGVSTVVLGAYDLRRRERQSRQTFSISSMSENGYDPQQNLNDLMLLQLDREANLTSSVTILPLPLQNATVEAGTRCQVAGWGSQRSGGRLSRFPRFVNVTVTPEDQCRPNNVCTGVLTRRGGICNGDGGTPLVCEGLAHGVASFSLGPCGRGPDFFTRVALFRDWIDGVLNNPGP | 2 µl had minimal effect on IGFBP-2 | 2 µl had minimal effect on ... not shown here, IGFBP-4 and IGFBP-6 | 2 µl had minimal effect on ... not shown here, IGFBP-4 | Azurocidin-dependent proteolysis of phosphorylated IGFBP-1 was seen within minutes, using a protease:substrate molar ratio of 1:3,500 | no difference was found in the rate of degradation of each isoform, with fragments visible within 3 min, and substantial degradation by 2 h | 2 µl had minimal effect on ... glycosylated (g) IGFBP-3 | eluate at pH 2: strong 30K band, no fragments; eluate at pH 7: faint 30K band and a strong band at 14.3K | the 30K band is strong at pH 2 and 4, a little weaker at pH 5, thin at pH 6 and absent at pH 7, 7.5 and 8; bands at 14.3K appear at pH 5 and 6 and are strongest at pH 7 and 7.5 | at 2, 5 and 10 ng IGF-I the upper band is kept, weaker than in the untreated lane (*), and the lower band is only faint; no clear change from 2 to 10 ng | at 2, 5 and 10 ng IGF-II the upper band is kept, weaker than in the untreated lane (*), and the lower band is only faint; no clear change from 2 to 10 ng | at all three amounts of insulin the upper band is as faint as with urine alone and the lower band is seen | lane U: the upper band of the untreated lane (*) is nearly gone and a strong lower band appears | the 30K band is strong at pH 6, weaker at pH 5, faint at pH 7 and absent at pH 7.5 and 8; strong fragment bands at 14.3K at pH 7, 7.5 and 8 (at pH 2 and 4 the 30K band is also absent, with only faint signal near 14.3K) | no difference was found in the rate of degradation of each isoform, with fragments visible within 3 min, and substantial degradation by 2 h | One µl of urine cleaved more than 50% of each IGFBP-1 isoform | One µl of urine cleaved more than 50% of each IGFBP-1 isoform | 2 µl had minimal effect on ... IGFBP-5 |  |
| Recombinant azurocidin 27-250, purified from murine myeloma cells (R&D Systems) (protein) IVGGRKARPRQFPFLASIQNQGRHFCGGALIHARFVMTAASCFQSQNPGVSTVVLGAYDLRRRERQSRQTFSISSMSENGYDPQQNLNDLMLLQLDREANLTSSVTILPLPLQNATVEAGTRCQVAGWGSQRSGGRLSRFPRFVNVTVTPEDQCRPNNVCTGVLTRRGGICNGDGGTPLVCEGLAHGVASFSLGPCGRGPDFFTRVALFRDWIDGVLNNPGPGP |  |  |  |  |  |  |  |  |  |  |  |  |  |  |  |  |  | Recombinant human azurocidin^27-250, produced in mouse myeloma cells, had no effect on IGFBP-1 (data not shown) |
